One series deals with Nucleolin. Nature of the series: EMSA. As to conditions: Invitrogen non-radioactive EMSA kit (SYBR), 25 min at 25 C (stated for nuclear extract), 2.2-2.5% agarose; buffer, salt and pH not given. For orientation: In EMSA bound probe runs differently from free probe, usually more slowly.
The test system of series [1] is Ku70/80 heterodimer (paper assigns Ku70 XRCC5, Ku80 XRCC6). Nature of the series: EMSA. As to conditions: Invitrogen non-radioactive EMSA kit (SYBR), 25 min at 25 C (stated for nuclear extract), 2.2-2.5% agarose; buffer, salt and pH not given.

In the case of IFIH1 rs13023380 A allele PCR product, the binding signal (fraction of G allele binding) (in the series on Nucleolin; in series [1]) was 0.5 each time.

The values above are taken from article PMC3575474.
